Data taken from PMC11630572, “Discovery of Nanosota-9 as anti-Omicron nanobody therapeutic candidate” (PLOS Pathogens, 2024).

What was measured:
Test in all cases: SPR; Biacore S200; spike ectodomain immobilized on CM5 chip by chemical crosslinking; Nanosota-9-His injected at 8, 16, 32, 64, 128 nM; running buffer 10 mM HEPES, 150 mM NaCl, 0.05% Tween 20
Conditions in all cases: both partners purified
[1] = target: T1, recombinant spike ectodomain of SARS-CoV-2 Omicron subvariant XBB.1.5 (SARS-CoV-2 Omicron XBB.1.5, strain)
T1 construct: The same GISAID id is printed for XBB.1.5 and JN.1; also called XBB.1.5 spike ectodomain; XBB.1.5 spike; not shown: His tag, C-terminal, kept

[2] = target: T2, recombinant spike ectodomain of SARS-CoV-2 Omicron subvariant JN.1 (SARS-CoV-2 Omicron JN.1, strain)
T2 construct: The same GISAID id is printed for XBB.1.5 and JN.1; also called JN.1 spike ectodomain; JN.1 spike; not shown: His tag, C-terminal, kept

[3] = target: T3, recombinant spike ectodomain of SARS-CoV-2 Omicron subvariant BA.5 (SARS-CoV-2 Omicron BA.5, strain)
T3 construct: also called BA.5 spike ectodomain; BA.5 spike; not shown: His tag, C-terminal, kept

B1: His-tagged Nanosota-9 (Nanosota-9-His) (VHH)
VHH: QVQLQESGGGLVQPGGSLRLSCTASGIALHTHATGWFRQAPGKEREGVSCISSGDGTTYYEDSVEGRFTISRDNAKNTVYLQMNSLKLEDTAVYYCAADPGAVCHSGSYYYTDDDFYYRGQGTQVTVSS
notes: Nanosota-9 nanobody from an alpaca immunized with the BA.5 spike ectodomain; also called monomeric Nanosota-9; not shown: His tag, C-terminal, kept
Kd [1]: 60 pM
Kd [2]: 29400 pM
Kd [3]: 78 pM
